The values that follow come from patent publication US5837516A, “Subtilisin variants capable of cleaving substrates containing basic residues” (Genentech, Inc., priority 1995, dated 1998).

In data set [1] the target is T1, succinyl-Ala-Ala-Pro-Lys-pNa.
T1 sequence (peptide, N-terminal succinyl; C-terminal p-nitroanilide (pNA)): AAPK

For another data set, the target named is T2, succinyl-AAPF-pNA.
T2 sequence (peptide, N-terminal succinyl; C-terminal p-nitroanilide (pNA)): AAPF

Another data set has as its target T3, succinyl-AAKR-pNA.
T3 sequence (peptide, N-terminal succinyl; C-terminal p-nitroanilide (pNA)): AAKR

Substrate in data set [2]: C[C@H](NC(=O)CCC(=O)O)C(=O)N[C@@H](C)C(=O)N[C@@H](CCCCN)C(=O)N[C@@H](CCCNC(=N)N)C(=O)Nc1ccc([N+](=O)[O-])cc1
Kind of data set: Kinetic analysis, hydrolysis of succinyl-tetrapeptide-pNA substrates. Format: biochemical, Bacillus amyloliquefaciens. The note with it: 20 mM Tris-Cl pH 8.2, 4% DMSO, 25 C. The procedure: (§1) The mature N62D/Y104D/G166D variant was purified and analyzed for its ability to hydrolyze several tetrapeptide-pNA substrates.
(§2) Kinetic analysis of WT, N62D/G166D, and N62D/Y104D/G166D subtilisin BPN'
(§3) Subtilisins were assayed by measuring the initial rates of hydrolysis of p-nitroanilide tetrapeptide substrates in 0.4 mL 20 mM Tris-Cl pH 8.2, 4% (v/v) dimethyl sulfoxide at (25±0.2)° C. as described previously (Estell, D. A., Graycar, T. P., Miller, J. V., Powers, D. B., Burnier, J. P., Ng, P. G. and Wells, J. A. (1986)Science 233:659-663). Enzyme concentrations (E)0 were determined spectrophotometrically using E280 nm 0.1%=1.17 (Matsubara, H.; Kasper, C B.; Brown, D. M.; and Smith, E. L. (1965)J. Biol. Chem.,240:1125-1130.), and were typically 5-50 nM in reactions. Initial rates were determined for nine to twelve different substrate concentrations over the range of 0.001-2.0 mM. Plots of initial rates (v) versus substrate concentration (S) were fitted to the Michaelis-Menton equation, [formula] to determine the kinetic constants kcat and Km (Fersht, A. in "Enzyme Structure and Mechanism", Second edition, Freeman and Co., N.Y.) using the program Kaleidagraph (Synergy Software, Reading, Pa.).

Substrate in data set [3]: C[C@H](NC(=O)CCC(=O)O)C(=O)N[C@@H](C)C(=O)N1CCC[C@H]1C(=O)N[C@@H](Cc1ccccc1)C(=O)Nc1ccc([N+](=O)[O-])cc1
Described as above. It is filed as biochemical, Bacillus amyloliquefaciens. Particulars: other: N62D/G166D, 20 mM Tris-Cl pH 8.2, 4% DMSO, 25 C. The procedure:
as §1, §2, §3

For data set [4], the target named is T4, succinyl-Ala-Ala-Lys-Lys-pNa.
T4 sequence (peptide, N-terminal succinyl; C-terminal p-nitroanilide (pNA)): AAKK

The target in data set [5] is hGH-AP fusion protein with substrate linker Asn-Leu-Met-Arg-Lys (E. coli). Particulars: scale: times faster than the Thr-Ala-Ser-Arg-Arg and Asn-Leu-Thr-Ala-Arg fusions.
The target of the next data set is T5, succinyl-RAKR-pNA.
T5 sequence (peptide, N-terminal succinyl; C-terminal p-nitroanilide (pNA)): RAKR

The target of a further data set is T6, succinyl-KAKR-pNA.
T6 sequence (peptide, N-terminal succinyl; C-terminal p-nitroanilide (pNA)): KAKR

Substrate in data set [6]: C[C@H](NC(=O)[C@H](CCCNC(=N)N)NC(=O)CCC(=O)O)C(=O)N[C@@H](CCCCN)C(=O)N[C@@H](CCCNC(=N)N)C(=O)Nc1ccc([N+](=O)[O-])cc1
In words: Kinetic analysis, hydrolysis of succinyl-tetrapeptide-pNA substrates. The note with it: other: N62D/Y104D/G166D, 20 mM Tris-Cl pH 8.2, 4% DMSO, 25 C. It is filed as biochemical, Bacillus amyloliquefaciens. As to the method:
as §1, §2, §3

Substrate in data set [7]: C[C@H](NC(=O)[C@H](CCCCN)NC(=O)CCC(=O)O)C(=O)N[C@@H](CCCCN)C(=O)N[C@@H](CCCNC(=N)N)C(=O)Nc1ccc([N+](=O)[O-])cc1
The description is as above. Format: biochemical, Bacillus amyloliquefaciens. Particulars: other: N62D/Y104D/G166D, 20 mM Tris-Cl pH 8.2, 4% DMSO, 25 C. The procedure:
as §1, §2, §3

B1: subtilisin BPN' variant G166D (enzyme)
chain: AQSVPYGVSQIKAPALHSQGYTGSNVKVAVIDSGIDSSHPDLKVAGGASMVPSETNPFQDNNSHGTHVAGTVAALNNSIGVLGVAPSASLYAVKVLGADGSGQYSWIINGIEWAIANNMDVINMSLGGPSGSAALKAAVDKAVASGVVVVAAAGNEGTSGSSSTVDYPGKYPSVIAVGAVDSSNQRASFSSVGPELDVMAPGVSIQSTLPGNKYGAYNGTSMASPHVAGAAALILSKHPNWTNTQVRSSLENTTTKLGDSFYYGKGLINVQAAAQ
B1: the ratio of catalytic efficiencies, hydrolysis of succinyl-tetrapeptide-pNA (times faster than the Phe P1 substrate) in [1] came to 3.

B2: subtilisin BPN' variant N62D/G166D (mature enzyme SEQ ID NO: 72) (Bacillus amyloliquefaciens; G273D/N169D) (protein)
chain: AQSVPYGVSQIKAPALHSQGYTGSNVKVAVIDSGIDSSHPDLKVAGGASMVPSETNPFQDNDSHGTHVAGTVAALNNSIGVLGVAPSASLYAVKVLGADGSGQYSWIINGIEWAIANNMDVINMSLGGPSGSAALKAAVDKAVASGVVVVAAAGNEGTSGSSSTVDYPGKYPSVIAVGAVDSSNQRASFSSVGPELDVMAPGVSIQSTLPGNKYGAYNGTSMASPHVAGAAALILSKHPNWTNTQVRSSLENTTTKLGDSFYYGKGLINVQAAAQ
notes: made in house; host or cells: Bacillus subtilis BG2036 (protease-deficient), secreted
One may read the Km as the substrate concentration at which the rate is half of its maximum. What is called kcat is the maximal rate divided by the concentration of active sites. As usually defined, the kcat/Km is the second-order rate constant that governs catalysis at low substrate concentration. Take B2: in the data set with succinyl-AAPF-pNA, the kcat/Km, hydrolysis of succinyl-tetrapeptide-pNA was found to be 1900 M⁻¹ s⁻¹. In the data set with succinyl-AAKR-pNA, the kcat/Km, hydrolysis of succinyl-tetrapeptide-pNA came out at 370000 M⁻¹ s⁻¹. In data set [2] (other: N62D/G166D), the Km came out at 41 µM, the kcat stood at 15 s⁻¹ and the kcat/Km came to 370000 M⁻¹ s⁻¹. Moreover, in data set [3], the Michaelis-Menten constant (Km) is 1800 µM, the kcat was 3.4 s⁻¹ and the kcat/Km came to 1900 M⁻¹ s⁻¹. Further, the ratio of catalytic efficiencies, hydrolysis of succinyl-tetrapeptide-pNA (times faster than a Lys-Phe substrate) in data set [4] worked out at 18. The rate of cleavage of the fusion protein from the hGH receptor plate (released AP activity) in [5] amounted to 10.

B3: subtilisin BPN' variant N62D/Y104D/G166D (SEQ ID NO: 75) (Bacillus amyloliquefaciens; G273D/N169D/Y211D) (protein)
chain: AQSVPYGVSQIKAPALHSQGYTGSNVKVAVIDSGIDSSHPDLKVAGGASMVPSETNPFQDNDSHGTHVAGTVAALNNSIGVLGVAPSASLYAVKVLGADGSGQDSWIINGIEWAIANNMDVINMSLGGPSGSAALKAAVDKAVASGVVVVAAAGNEGTSGSSSTVDYPGKYPSVIAVGAVDSSNQRASFSSVGPELDVMAPGVSIQSTLPGNKYGAYNGTSMASPHVAGAAALILSKHPNWTNTQVRSSLENTTTKLGDSFYYGKGLINVQAAAQ
notes: the mature enzyme +1 to +275; made in house; host or cells: Bacillus subtilis BG2036 (protease-deficient), secreted
For the molecule B3, the kcat/Km, hydrolysis of succinyl-tetrapeptide-pNA in the data set with succinyl-AAPF-pNA amounted to 8 M⁻¹ s⁻¹; in the data set with succinyl-RAKR-pNA, 490000 M⁻¹ s⁻¹; with succinyl-AAKR-pNA, 8100 M⁻¹ s⁻¹; with succinyl-KAKR-pNA, 340000 M⁻¹ s⁻¹. In addition, the values for the Km in [2] (other: N62D/Y104D/G166D), in [6] and in data set [7] were 34 µM, 23 µM and 29 µM, respectively. Also, the kcat in data set [2] (other: N62D/Y104D/G166D) is 0.27 s⁻¹; in data set [6], 11 s⁻¹; in data set [7], 9.8 s⁻¹. For the same molecule, the kcat/Km in data set [2] (other: N62D/Y104D/G166D) was found to be 8100 M⁻¹ s⁻¹; in data set [6], 490000 M⁻¹ s⁻¹; in data set [7], 340000 M⁻¹ s⁻¹.

B4: subtilisin BPN' variant N62D/G166E (enzyme)
chain: AQSVPYGVSQIKAPALHSQGYTGSNVKVAVIDSGIDSSHPDLKVAGGASMVPSETNPFQDNDSHGTHVAGTVAALNNSIGVLGVAPSASLYAVKVLGADGSGQYSWIINGIEWAIANNMDVINMSLGGPSGSAALKAAVDKAVASGVVVVAAAGNEGTSGSSSTVEYPGKYPSVIAVGAVDSSNQRASFSSVGPELDVMAPGVSIQSTLPGNKYGAYNGTSMASPHVAGAAALILSKHPNWTNTQVRSSLENTTTKLGDSFYYGKGLINVQAAAQ
Take B4: the ratio of catalytic efficiencies, hydrolysis of succinyl-tetrapeptide-pNA (times faster than the Lys-Phe substrate) in [4] was determined as 8.
